Test results taken from paper PMC7457537.
pKd: −log10 of the molar value.

Columns and labels:
[1] = target: HIV-1 integrase with methionine preceding the N-terminal phenylalanine (IN MF), full-length (HIV-1 (NL4-3)); test: AUC; sedimentation equilibrium, 4 °C, 20 mM HEPES-NaOH pH 7.5, 1 M NaCl, 7 mM CHAPS, 10 µM ZnOAc2, 10 µM β-mercaptoethanol; global fit at 16, 20, 24 krpm (SEDPHAT); dimer to monomers
[2] = target: HIV-1 integrase with methionine preceding the N-terminal phenylalanine (IN MF), full-length (HIV-1 (NL4-3)); test: AUC; sedimentation equilibrium, 4 °C, same data and buffer as the monomer-dimer fit; attempted fit of a dimer-tetramer equilibrium: tetramer to dimers
[3] = target: HIV-1 integrase with methionine preceding the N-terminal phenylalanine (IN MF), full-length (HIV-1 (NL4-3)); test: SEC-MALS; Superdex 200 10/300, 25 °C, 20 mM HEPES-NaOH pH 7.5, 500 mM-1 M NaCl, 7 mM CHAPS, 10 µM ZnOAc2, 10 µM β-mercaptoethanol; eluted concentrations ~8-10 µM (IN 1F, IN MF); self-association
[4] = target: HIV-1 integrase with methionine preceding the N-terminal phenylalanine (IN MF), full-length (HIV-1 (NL4-3)); test: AUC; sedimentation velocity, 25 °C, 40,000 rpm, 20 mM HEPES-NaOH pH 7.5, 1 M NaCl, 7 mM CHAPS, 10 µM ZnOAc2, 10 µM β-mercaptoethanol; c(s) model in SEDFIT; self-association

Substance: HIV-1 integrase with methionine preceding the N-terminal phenylalanine (IN MF), full-length (enzyme)
- pKd [1]: 3.90
- pKd [2]: < 3.00
- stoichiometry N [3]: 2
- stoichiometry N [4]: 2
